T1: mouse FcγRIII (mouse, UniProt P08508 31-215)
T1 construct: Extracellular domain with C-terminal His tag; also called mFcγRIII; mFcgRIII
T1 chain: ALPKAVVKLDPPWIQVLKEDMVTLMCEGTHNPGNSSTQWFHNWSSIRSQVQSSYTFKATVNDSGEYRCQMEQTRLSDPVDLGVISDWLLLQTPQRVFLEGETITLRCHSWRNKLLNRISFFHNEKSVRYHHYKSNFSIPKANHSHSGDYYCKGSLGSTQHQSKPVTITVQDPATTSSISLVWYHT

T2: mouse FcγRII (mouse, UniProt P08101 30-210)
T2 construct: Extracellular domain with C-terminal His tag; also called mFcγRII; mFcgRII
T2 sequence: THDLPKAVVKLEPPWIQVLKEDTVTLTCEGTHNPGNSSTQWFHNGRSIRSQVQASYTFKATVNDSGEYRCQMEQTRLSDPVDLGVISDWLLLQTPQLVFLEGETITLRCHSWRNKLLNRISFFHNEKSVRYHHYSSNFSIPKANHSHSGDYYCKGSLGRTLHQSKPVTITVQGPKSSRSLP


Legend:
[1] = target: T1, mouse FcγRIII; test: SPR (Biacore T200); KD of H237-MB630/MRAL-k0 / KD of variant
[2] = target: T2, mouse FcγRII; test: as above
[3] = target: T1, mouse FcγRIII; test: SPR (Biacore T200); KD of H237-mIgG1/MRAL-k0 / KD of variant
[4] = target: T2, mouse FcγRII; test: as above

| Relative mFcγRIII-binding activity (MB630 = 1) [1] [fold] | Relative mFcγRII-binding activity (MB630 = 1) [2] [fold] | relative mFcγRIII-binding activity (mIgG1 = 1) [3] [fold] | relative mFcγRII-binding activity (mIgG1 = 1) [4] [fold] | Binder |
| --- | --- | --- | --- | --- |
| 1.29 | 1.24 | 0.3 | 16.3 | MB813 (antibody, mouse IgG1, kappa, CH name; VH H237 + CH, L chain MRAL-k0; copies: 2 + 2) heavy: QVQLQESGPGLVKPSETLSLTCAVSGHSISHDHAWSWVRQPPGEGLEWIGFISYSGITNYNPSLQGRVTISRDNSKNTLYLQMNSLRAEDTAVYYCARSLARTTAMDYWGEGTLVTVSSAKTTPPSVYPLAPGSAAQTNSMVTLGCLVKGYFPEPVTVTWNSGSLSSGVHTFPAVLQSDLYTLSSSVTVPSSTWPSETVTCNVAHPASSTKVDKKIVPRDCGCKPCICEPNEVELVFIFPPKPKDVLTITLTPKVTCVVVDISKDDPEVQFSWFVDDVEVHTAQTQPREEQFNSTFRSVSELPIMHQDWLNGKEFKCRVDSAAFPAFIEKTISKTKGRPKAPQVYTIPPPKEQMAKDKVSLTCMITDFFPEDITVEWQWNGQPAENYKNTQPIMDTDGSYFVYSKLNVQKSNWEAGNTFTCSVLHEGLHNHHTEKSLSHSPGK light: not shown |
| 2.93 | 2.54 | 0.68 | 33.4 | MB812 (antibody, mouse IgG1, kappa, CH name; VH H237 + CH, L chain MRAL-k0; copies: 2 + 2) heavy: QVQLQESGPGLVKPSETLSLTCAVSGHSISHDHAWSWVRQPPGEGLEWIGFISYSGITNYNPSLQGRVTISRDNSKNTLYLQMNSLRAEDTAVYYCARSLARTTAMDYWGEGTLVTVSSAKTTPPSVYPLAPGSAAQTNSMVTLGCLVKGYFPEPVTVTWNSGSLSSGVHTFPAVLQSDLYTLSSSVTVPSSTWPSETVTCNVAHPASSTKVDKKIVPRDCGCKPCICEPNEVELVFIFPPKPKDVLTITLTPKVTCVVVDISKDDPEVQFSWFVDDVEVHTAQTQPREEQFNSTFRSVSELPIMHQDWLNGKEFKCRVDSAGFPAPIEKTISKTKGRPKAPQVYTIPPPKEQMAKDKVSLTCMITDFFPEDITVEWQWNGQPAENYKNTQPIMDTDGSYFVYSKLNVQKSNWEAGNTFTCSVLHEGLHNHHTEKSLSHSPGK light: not shown |
| 1.48 | 1.37 | 0.34 | 18 | MB814 (antibody, mouse IgG1, kappa, CH name; VH H237 + CH, L chain MRAL-k0; copies: 2 + 2) heavy: QVQLQESGPGLVKPSETLSLTCAVSGHSISHDHAWSWVRQPPGEGLEWIGFISYSGITNYNPSLQGRVTISRDNSKNTLYLQMNSLRAEDTAVYYCARSLARTTAMDYWGEGTLVTVSSAKTTPPSVYPLAPGSAAQTNSMVTLGCLVKGYFPEPVTVTWNSGSLSSGVHTFPAVLQSDLYTLSSSVTVPSSTWPSETVTCNVAHPASSTKVDKKIVPRDCGCKPCICEPNEVELVFIFPPKPKDVLTITLTPKVTCVVVDISKDDPEVQFSWFVDDVEVHTAQTQPREEQFNSTFRSVSELPIMHQDWLNGKEFKCRVDSAAFPAYIEKTISKTKGRPKAPQVYTIPPPKEQMAKDKVSLTCMITDFFPEDITVEWQWNGQPAENYKNTQPIMDTDGSYFVYSKLNVQKSNWEAGNTFTCSVLHEGLHNHHTEKSLSHSPGK light: not shown |

Second part, the binder before the results:

| Binder | Relative mFcγRIII-binding activity (MB630 = 1) [1] [fold] | Relative mFcγRII-binding activity (MB630 = 1) [2] [fold] | relative mFcγRIII-binding activity (mIgG1 = 1) [3] [fold] | relative mFcγRII-binding activity (mIgG1 = 1) [4] [fold] |
| --- | --- | --- | --- | --- |
| MB791 (antibody, mouse IgG1, kappa, CH name; VH H237 + CH, L chain MRAL-k0; copies: 2 + 2) heavy: QVQLQESGPGLVKPSETLSLTCAVSGHSISHDHAWSWVRQPPGEGLEWIGFISYSGITNYNPSLQGRVTISRDNSKNTLYLQMNSLRAEDTAVYYCARSLARTTAMDYWGEGTLVTVSSAKTTPPSVYPLAPGSAAQTNSMVTLGCLVKGYFPEPVTVTWNSGSLSSGVHTFPAVLQSDLYTLSSSVTVPSSTWPSETVTCNVAHPASSTKVDKKIVPRDCGCKPCICEPNEVELVFIFPPKPKDVLTITLTPKVTCVVVDISKDDPEVQFSWFVDDVEVHTAQTQPREELFNSTFRSVSELPIMHQDWLNGKEFKCRVDSDAFPAPIERTISKTKGRPKAPQVYTIPPPKEQMAKDKVSLTCMITDFFPEDITVEWQWNGQPAENYKNTQPIMDTDGSYFVYSKLNVQKSNWEAGNTFTCSVLHEGLHNHHTEKSLSHSPGK light: not shown | 6.43 | 3.7 | 1.1 | 40.1 |
| MB810 (antibody, mouse IgG1, kappa, CH name; VH H237 + CH, L chain MRAL-k0; copies: 2 + 2) heavy: QVQLQESGPGLVKPSETLSLTCAVSGHSISHDHAWSWVRQPPGEGLEWIGFISYSGITNYNPSLQGRVTISRDNSKNTLYLQMNSLRAEDTAVYYCARSLARTTAMDYWGEGTLVTVSSAKTTPPSVYPLAPGSAAQTNSMVTLGCLVKGYFPEPVTVTWNSGSLSSGVHTFPAVLQSDLYTLSSSVTVPSSTWPSETVTCNVAHPASSTKVDKKIVPRDCGCKPCICEPNEVELVFIFPPKPKDVLTITLTPKVTCVVVDISKDDPEVQFSWFVDDVEVHTAQTQPREELFNSTFRSVSELPIMHQDWLNGKEFKCRVNSAAFPAYIEKTISKTKGRPKAPQVYTIPPPKEQMAKDKVSLTCMITDFFPEDITVEWQWNGQPAENYKNTQPIMDTDGSYFVYSKLNVQKSNWEAGNTFTCSVLHEGLHNHHTEKSLSHSPGK light: not shown | 2.24 | 1.58 | 0.52 | 20.8 |
| MB809 (antibody, mouse IgG1, kappa, CH name; VH H237 + CH, L chain MRAL-k0; copies: 2 + 2) heavy: QVQLQESGPGLVKPSETLSLTCAVSGHSISHDHAWSWVRQPPGEGLEWIGFISYSGITNYNPSLQGRVTISRDNSKNTLYLQMNSLRAEDTAVYYCARSLARTTAMDYWGEGTLVTVSSAKTTPPSVYPLAPGSAAQTNSMVTLGCLVKGYFPEPVTVTWNSGSLSSGVHTFPAVLQSDLYTLSSSVTVPSSTWPSETVTCNVAHPASSTKVDKKIVPRDCGCKPCICEPNEVELVFIFPPKPKDVLTITLTPKVTCVVVDISKDDPEVQFSWFVDDVEVHTAQTQPREELFNSTFRSVSELPIMHQDWLNGKEFKCRVNSAAFPAFIEKTISKTKGRPKAPQVYTIPPPKEQMAKDKVSLTCMITDFFPEDITVEWQWNGQPAENYKNTQPIMDTDGSYFVYSKLNVQKSNWEAGNTFTCSVLHEGLHNHHTEKSLSHSPGK light: not shown | 1.92 | 1.44 | 0.44 | 19 |
| MB808 (antibody, mouse IgG1, kappa, CH name; VH H237 + CH, L chain MRAL-k0; copies: 2 + 2) heavy: QVQLQESGPGLVKPSETLSLTCAVSGHSISHDHAWSWVRQPPGEGLEWIGFISYSGITNYNPSLQGRVTISRDNSKNTLYLQMNSLRAEDTAVYYCARSLARTTAMDYWGEGTLVTVSSAKTTPPSVYPLAPGSAAQTNSMVTLGCLVKGYFPEPVTVTWNSGSLSSGVHTFPAVLQSDLYTLSSSVTVPSSTWPSETVTCNVAHPASSTKVDKKIVPRDCGCKPCICEPNEVELVFIFPPKPKDVLTITLTPKVTCVVVDISKDDPEVQFSWFVDDVEVHTAQTQPREELFNSTFRSVSELPIMHQDWLNGKEFKCRVNSAGFPAPIEKTISKTKGRPKAPQVYTIPPPKEQMAKDKVSLTCMITDFFPEDITVEWQWNGQPAENYKNTQPIMDTDGSYFVYSKLNVQKSNWEAGNTFTCSVLHEGLHNHHTEKSLSHSPGK light: not shown | 3.4 | 2.22 | 0.78 | 29.2 |
| MB811 (antibody, mouse IgG1, kappa, CH name; VH H237 + CH, L chain MRAL-k0; copies: 2 + 2) heavy: QVQLQESGPGLVKPSETLSLTCAVSGHSISHDHAWSWVRQPPGEGLEWIGFISYSGITNYNPSLQGRVTISRDNSKNTLYLQMNSLRAEDTAVYYCARSLARTTAMDYWGEGTLVTVSSAKTTPPSVYPLAPGSAAQTNSMVTLGCLVKGYFPEPVTVTWNSGSLSSGVHTFPAVLQSDLYTLSSSVTVPSSTWPSETVTCNVAHPASSTKVDKKIVPRDCGCKPCICEPNEVELVFIFPPKPKDVLTITLTPKVTCVVVDISKDDPEVQFSWFVDDVEVHTAQTQPREELFNSTFRSVSELPIMHQDWLNGKEFKCRVNSAAFPAPIYKTISKTKGRPKAPQVYTIPPPKEQMAKDKVSLTCMITDFFPEDITVEWQWNGQPAENYKNTQPIMDTDGSYFVYSKLNVQKSNWEAGNTFTCSVLHEGLHNHHTEKSLSHSPGK light: not shown | 1.87 | 1.69 | 0.43 | 22.2 |
| MB807 (antibody, mouse IgG1, kappa, CH name; VH H237 + CH, L chain MRAL-k0; copies: 2 + 2) heavy: QVQLQESGPGLVKPSETLSLTCAVSGHSISHDHAWSWVRQPPGEGLEWIGFISYSGITNYNPSLQGRVTISRDNSKNTLYLQMNSLRAEDTAVYYCARSLARTTAMDYWGEGTLVTVSSAKTTPPSVYPLAPGSAAQTNSMVTLGCLVKGYFPEPVTVTWNSGSLSSGVHTFPAVLQSDLYTLSSSVTVPSSTWPSETVTCNVAHPASSTKVDKKIVPRDCGCKPCICEPNEVELVFIFPPKPKDVLTITLTPKVTCVVVDISKDDPEVQFSWFVDDVEVHTAQTQPREELFNSTFRSVSELPIMHQDWLNGKEFKCRVMSAAFPAPIEKTISKTKGRPKAPQVYTIPPPKEQMAKDKVSLTCMITDFFPEDITVEWQWNGQPAENYKNTQPIMDTDGSYFVYSKLNVQKSNWEAGNTFTCSVLHEGLHNHHTEKSLSHSPGK light: not shown | 2.11 | 1.67 | 0.49 | 21.9 |

— patent publication US20150203577A1 (Chugai, published 2015)
